Where “and” joins values, the source holds several entries; their conditions need not be identical. Equal values may be shown once.

The source of these data is paper PMC11586414.

For test [1], the target named is HEPN^Lpg WT (HEPN toxin of the Legionella pneumophila HEPN–MNT module) (Legionella pneumophila Philadelphia 1) (UniProt Q5ZRG2). As to the kind of experiment: crystal structure.
Test [2] has the same target. In words: AUC.

Regarding “HEPN^Lpg WT (HEPN toxin of the Legionella pneumophila HEPN–MNT module) (from UniProt Q5ZRG2 1-139) (natural protein)”, the stoichiometry N in test [1] is 4; in test [2], 2 and 4.

“MNT^Lpg (MNT antitoxin of the Legionella pneumophila HEPN–MNT module) (from UniProt Q5ZRG1 1-108) (enzyme)” returned a stoichiometry N (MNT^Lpg per HEPN^Lpg chain (1:4)) in test [1] of 0.25.

As a reminder, the stoichiometry N is a count of units in the complex or per binding partner.
